# Laboratory results from paper PMC13324253 (NPJ Vaccines, 2026).
# Where no end group is shown, it is not given here.
# T1: junctional peptide P21 (NPDPNANPNVDPNAN) (Plasmodium falciparum, also: biotin, end not given here)
# T1 construct: junctional 15-mer peptide of PfCSP; Biotinylated, held on streptavidin-coated plates in the ELISA; Probably a synthetic peptide (surmise); also called peptide 21
# T1 chain: NPDPNANPNVDPNAN
# T2: major repeat peptide P29 (NANPNANPNANPNAN) (Plasmodium falciparum, also: biotin, end not given here)
# T2 construct: major repeat 15-mer peptide of PfCSP; Biotinylated, held on streptavidin-coated plates in the ELISA; Probably a synthetic peptide (surmise)
# T2 chain: NANPNANPNANPNAN
# B1: P21/P29 double binder of mouse 5147 (PADRE-LuS-3T-immunized mouse) (antibody, V domains shown)
# VH: DVQLQESGPGLVKPSQSLSLTCSVTGYSITSGYYWNWIRQFPGNKLEWMGYISYDGSNNYNPSLKNRISITRDTSKNQFFLKLNSVTTEDTATYYCARDDYDGFDYWGQGTTLTVSS
# VL: DIQMTQSPSSLSASLGGKVTITCKASQDINKYIAWYQHKPGKGPRLLIHYTSTLQPGIPSRFSGSGSGRDYSFSISNLEPEDIATYYCLQYDNLWTFGGGTKLEIK
# notes: Expressed IgG from a single sorted B cell; source: Expi293, transfected with RATP-Ig cassettes, in culture supernatant
# B2: one strong PfCSP-binding antibody of R21-immunized mouse 5116 (antibody, V domains shown)
# VH: QIQLLQSGPELVKPGASVRISCKASGYTLTDHYINWVKQRPGQGLEWIGWIYPGSAEIKFNEKFKGKASLTVDTSSSTAYMQLSSLTSEDSAVYFCARSGYGGLDYWGQGSTLTVSS
# VL: DLGMTQSHKFMSTSVGDRVTITCKASQDVGTAVAWYQQKPGQSPKLLIYWASTRHTGVPDRFTGSGSGTDFTLTITNVQSEDLADYFCQQFTIYPWTFGGGTKLEIK
# notes: as for B1
# B3: one strong P29-binding antibody of R21-immunized mouse 5116 (antibody, V domains shown)
# VH: QVQLQQSGAELARPGASVKLSCKASGYTFTSYAISWVKQRTGQGLEWIGEIYPRSGNIYYNEKFKGKATLTADKSSSTAYMELRSLTSEDSAVYFCARRGDVYFGGYWGQGTTLTVSS
# VL: DIVMTQSHKFMSTSVGDRVIITCKASQDVGTAVVWYQQKPGQSPKLLIYWASTRHTGVPDRFTGSGSGTDFTLTISNVQSEDLADYFCQQYNSYPLTFGAGTKLELK
# notes: as for B1
# Legend:
# Experiment in all cases: ELISA; biotinylated P21 or P29 (2 ug/ml) on streptavidin-coated plates, PfCSP (2 ug/ml) coated on high-binding plates; 100 ul RATPIg supernatant, 1 h at room temperature; peroxidase goat anti-mouse IgG, OD450
# Conditions in all cases: one partner purified
# [1] = biological target: T1, junctional peptide P21 (NPDPNANPNVDPNAN)
# [2] = biological target: T2, major repeat peptide P29 …
# [3] = biological target: T3, Plasmodium falciparum circumsporozoite protein (PfCSP), full-length (Plasmodium falciparum, 3D7 (strain not …, UniProt Q7K740))
# T3 construct: Plasmodium falciparum circumsporozoite protein, called full-length; recombinant 'full-length' PfCSP may lack the signal peptide and the GPI anchor signal (surmise); also called flCSP
# T3 sequence (Q7K740 19-374): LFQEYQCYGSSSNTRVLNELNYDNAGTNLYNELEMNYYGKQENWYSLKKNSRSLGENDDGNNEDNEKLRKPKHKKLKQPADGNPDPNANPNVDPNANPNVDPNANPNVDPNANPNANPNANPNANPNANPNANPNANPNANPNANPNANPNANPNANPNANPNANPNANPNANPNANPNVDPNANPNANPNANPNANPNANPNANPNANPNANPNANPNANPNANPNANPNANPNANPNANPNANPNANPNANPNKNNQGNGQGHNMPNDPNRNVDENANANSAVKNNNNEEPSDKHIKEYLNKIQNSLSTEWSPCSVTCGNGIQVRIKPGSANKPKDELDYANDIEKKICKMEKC
Binder,binding result [1],binding result [2],binding result [3]
B1,binds,binds,–
B2,–,–,binds
B3,–,binds,–
